The values below come from patent publication US6514936 (Bayer, dated 2003).

In assay [1] the target is T1, Human rhinovirus serotype 3 (HRV3), purified virion (human rhinovirus serotype 3, UniProt Q82081 562-855; Q82081 70-331; Q82081 332-561; Q82081 2-69).
T1 sequence 1: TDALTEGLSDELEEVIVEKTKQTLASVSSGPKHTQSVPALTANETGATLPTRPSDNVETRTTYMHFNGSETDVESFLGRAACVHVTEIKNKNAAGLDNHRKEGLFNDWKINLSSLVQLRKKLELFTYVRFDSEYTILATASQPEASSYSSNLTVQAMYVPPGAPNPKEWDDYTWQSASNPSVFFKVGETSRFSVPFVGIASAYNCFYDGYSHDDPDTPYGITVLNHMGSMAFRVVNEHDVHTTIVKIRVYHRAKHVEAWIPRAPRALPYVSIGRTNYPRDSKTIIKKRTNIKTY
T1 sequence 2: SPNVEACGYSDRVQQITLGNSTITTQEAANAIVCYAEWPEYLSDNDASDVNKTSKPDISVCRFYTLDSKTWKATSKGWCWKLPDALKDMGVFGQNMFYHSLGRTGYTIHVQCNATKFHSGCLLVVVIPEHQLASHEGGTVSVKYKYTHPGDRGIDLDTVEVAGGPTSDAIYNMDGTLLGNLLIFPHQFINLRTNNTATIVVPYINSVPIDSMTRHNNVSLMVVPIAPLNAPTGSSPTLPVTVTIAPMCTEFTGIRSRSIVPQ
T1 sequence 3: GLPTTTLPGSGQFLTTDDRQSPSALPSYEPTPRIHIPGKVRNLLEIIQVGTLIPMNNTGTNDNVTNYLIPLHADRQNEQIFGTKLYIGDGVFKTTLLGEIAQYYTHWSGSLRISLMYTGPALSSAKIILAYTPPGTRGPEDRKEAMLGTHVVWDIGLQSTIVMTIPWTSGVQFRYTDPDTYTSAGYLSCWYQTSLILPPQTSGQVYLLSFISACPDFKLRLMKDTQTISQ
T1 sequence 4: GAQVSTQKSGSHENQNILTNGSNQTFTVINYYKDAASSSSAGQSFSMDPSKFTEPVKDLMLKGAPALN
Kind of assay: cell-based or functional assay.

For assay [2], the target named is T1, Human rhinovirus serotype 3 (HRV3), …. Kind of assay: solid-phase competition against [35S]-HRV3 binding to ICAM-1-coated plates.
Assay [3] shares this target. The experiment in a line: pelleting assay, [35S]-cysteine-labelled ICAM mixed with HRV3 and centrifuged; average of 4 experiments.
For assay [4] the target is unchanged. The experiment in a line: solid-phase competition, soluble ICAM against [35S]-HRV3 binding to ICAM-1-coated plates, 0.1% Triton X-100; average of three experiments ± S.D.
Assay [5] has the same target. The experiment in a line: cell-based or functional assay. This is another data set of the same source.
For assay [6] the target is unchanged. Kind of assay: dot-blot, normalised [35S]-HRV3 binding of immobilised ICAM against that of immobilised tICAM(453).

B1: tICAM(185) (receptor)
chain: QTSVSPSKVILPRGGSVLVTCSTSCDQPKLLGIETPLPKKELLLPGNNRKVYELSNVQEDSQPMCYSNCPDGQSTAKTFLTVYWTPERVELAPLPSWQPVGKNLTLRCQVEGGAPRANLTVVLLRGEKELKREPAVGEPAEVTTTVLVRRDHHGANFSCRTELDLRPQGLELFENTSAPYQLQTF
notes: range 1-185; On the UniProt precursor it is shifted by the length of the signal peptide; also called truncated ICAM, domains I and II; two N-terminal domains of ICAM-1
For B1, in assay [1], the “IC50, neutralization of HRV3 infectivity, Assay I (continuous)” value came out at 8.2 µM; the “IC50, neutralization of HRV3 infectivity, Assay II (Pretreatment)” value was below 20 µM; the “IC50, neutralization of HRV3 infectivity, Assay III (high MOI)” value amounted to 13.2 µM. Besides, in assay [2], the “fold difference of IC50 against tICAM(453)” value is 3 fold and the “fold higher IC50 than tmICAM” value is 1000 fold. For the same molecule, the “% ICAM Pelleted” value in assay [3] came to 4.3%. The molecule further returned an IC50 in assay [4] of 9.7 µM.

B2: tICAM(453) (receptor)
chain: QTSVSPSKVILPRGGSVLVTCSTSCDQPKLLGIETPLPKKELLLPGNNRKVYELSNVQEDSQPMCYSNCPDGQSTAKTFLTVYWTPERVELAPLPSWQPVGKNLTLRCQVEGGAPRANLTVVLLRGEKELKREPAVGEPAEVTTTVLVRRDHHGANFSCRTELDLRPQGLELFENTSAPYQLQTFVLPATPPQLVSPRVLEVDTQGTVVCSLDGLFPVSEAQVHLALGDQRLNPTVTYGNDSFSAKASVSVTAEDEGTQRLTCAVILGNQSQETLQTVTIYSFPAPNVILTKPEVSEGTEVTVKCEAHPRAKVTLNGVPAQPLGPRAQLLLKATPEDNGRSFSCSATLEVAGQLIHKNQTRELRVLYGPRLDERDCPGNWTWPENSQQTPMCQAWGNPLPELKCLKDGTFPLPIGESVTVTRDLEGTYLCRARSTQGEVTRKVTVNVLSPRYE
notes: range 1-453; On the UniProt precursor it is shifted by the length of the signal peptide; also called truncated ICAM, domains I-V; entire extracellular domain of ICAM-1
Turning to B2, the “neutralization IC50 in Assay III relative to tICAM(185)” value in assay [5] stood at 11 fold. Besides, in assay [1], the “IC50, neutralization of HRV3 infectivity, Assay I (continuous)” value was determined as 0.38 µM; the “IC50, neutralization of HRV3 infectivity, Assay II (Pretreatment)” value was below 20 µM; the “IC50, neutralization of HRV3 infectivity, Assay III (high MOI)” value is 1.2 µM. Besides, the “fold higher IC50 than tmICAM” value in assay [2] was found to be 350 fold. Further, the “% ICAM Pelleted” value in assay [3] was found to be 1%. This molecule registered an IC50 in assay [4] of 3.1 µM.

B3: Transmembrane intercellular adhesion molecule-1 (tmICAM-1) (receptor, human, UniProt P05362 28-532, looked up)
chain: QTSVSPSKVILPRGGSVLVTCSTSCDQPKLLGIETPLPKKELLLPGNNRKVYELSNVQEDSQPMCYSNCPDGQSTAKTFLTVYWTPERVELAPLPSWQPVGKNLTLRCQVEGGAPRANLTVVLLRGEKELKREPAVGEPAEVTTTVLVRRDHHGANFSCRTELDLRPQGLELFENTSAPYQLQTFVLPATPPQLVSPRVLEVDTQGTVVCSLDGLFPVSEAQVHLALGDQRLNPTVTYGNDSFSAKASVSVTAEDEGTQRLTCAVILGNQSQETLQTVTIYSFPAPNVILTKPEVSEGTEVTVKCEAHPRAKVTLNGVPAQPLGPRAQLLLKATPEDNGRSFSCSATLEVAGQLIHKNQTRELRVLYGPRLDERDCPGNWTWPENSQQTPMCQAWGNPLPELKCLKDGTFPLPIGESVTVTRDLEGTYLCRARSTQGEVTRKVTVNVLSPRYEIVIITVVAAAVIMGTAGLSTYLYNRQRKIKKYRLQQAQKGTPMKPNTQATPP
notes: mature; also called HRR; human rhinovirus receptor
In the case of B3, in assay [6], the “ratio ICAM/tICAM (453)” value is 2.3. The “% ICAM Pelleted” value in assay [3] turned out to be 11.6%. The molecule further yielded an IC50 in assay [4] of 0.008 µM.

What is called IC50 is the concentration at which inhibition is half-maximal. Lower therefore signals higher potency.
